The record followed here is patent publication CN117229395A.

One assay has as its target T1, CT8 (human).
T1 sequence (peptide): QDFNKFHTF
Put plainly: competition ELISA; antibody pre-incubated with peptide, then on coated CT antigen.

In a further assay the target is T2, CT12 (human).
T2 sequence (peptide): DFNKFHT
Described as above.

For the next assay, the target named is T3, CT10 (human).
T3 sequence (peptide): QDFNKFHTFPQ
Described as above.

In the next assay the target is T4, CT13 (human).
T4 sequence (peptide): DFNKFHTF
Described as above.

Another assay addresses T5, CT15 (human).
T5 sequence (peptide): DFNKFHTFPQ
The assay is described as above.

Another assay has as its target T6, CT14 (human).
T6 sequence (peptide): DFNKFHTFP
The description is as above.

The next assay deals with T7, CT17 (human).
T7 sequence (peptide): FNKFH
The description is as above.

The target of another assay is T8, CT5 (human).
T8 sequence (peptide): TQDFNKFHTF
Described as above.

The target in the next assay is T9, CT9 (human).
T9 sequence (peptide): QDFNKFHTFP
Described as above.

The next assay addresses T10, CT6 (human).
T10 sequence (peptide): TQDFNKFHTFP
The description is as above.

For another assay, the target named is T11, CT3 (human).
T11 sequence (peptide): NKFHTFPQTAIGVGAP
The assay is described as above.

Another assay addresses T12, CT7 (human).
T12 sequence (peptide): TQDFNKFHTFPQ
The assay is described as above.

The target in a further assay is T13, CT4 (human).
T13 sequence (peptide): YTQDFNKFHTFP
The description is as above.

A further assay concerns the target T14, CT18 (human).
T14 sequence (peptide): FNKFHT
Described as above.

A further assay concerns the target T15, CT16 (human).
T15 sequence (peptide): FNKF
The description is as above.

The next assay concerns the target T16, CT1 (human).
T16 sequence (peptide): CGNLSTCMLGTYTQDF
The assay is described as above.

The next assay addresses T17, CT2 (human).
T17 sequence (peptide): LGTYTQDFNKFHTFPQ
The description is as above.

Another assay concerns the target T18, CT11 (human).
T18 sequence (peptide): DFNKFH
Described as above.

Assay [1] has as its target T19, WHO国际标准降钙素(Human NIBSC code:89/620) (Human) (UniProt P01258).
T19 sequence (peptide, looked up): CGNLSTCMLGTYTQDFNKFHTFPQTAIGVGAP
Put plainly: sandwich chemiluminescence; CT captured by 10B11 magnetic beads, detected by acridinium ester labelled 14D11.

Another assay addresses CT24 (human). Put plainly: competition ELISA; antibody pre-incubated with peptide, then on coated CT antigen.
Another assay addresses CT26 (human). Described as above.
The next assay concerns the target T20, CT25 (human).
T20 sequence (peptide, C-terminal amide (-NH2)): VGAP
The description is as above.

In another assay the target is T21, CT23 (human).
T21 sequence (peptide, C-terminal amide (-NH2)): IGVGAP
The description is as above.

The target in another assay is T22, CT22 (human).
T22 sequence (peptide, C-terminal amide (-NH2)): QTAIGVGAP
The assay is described as above.

A further assay deals with T23, CT21 (human).
T23 sequence (peptide, C-terminal amide (-NH2)): HTFPQTAIGVGAP
The description is as above.

A further assay addresses T24, CT48 (human).
T24 sequence (peptide, C-terminal amide (-NH2)): QTAIGVAAP
The experiment in a line: competition ELISA; antibody pre-incubated with alanine-mutant peptide, then on coated CT antigen. In general terms: ELISA stands for enzyme-linked immunosorbent assay.

The next assay deals with T25, CT46 (human).
T25 sequence (peptide, C-terminal amide (-NH2)): QTAIAVGAP
Described as above.

In the next assay the target is T26, CT43 (human).
T26 sequence (peptide, C-terminal amide (-NH2)): ATAIGVGAP
Described as above.

In the next assay the target is T27, CT45 (human).
T27 sequence (peptide, C-terminal amide (-NH2)): QTAAGVGAP
Described as above.

For another assay, the target named is T28, CT47 (human).
T28 sequence (peptide, C-terminal amide (-NH2)): QTAIGAGAP
The assay is described as above.

A further assay concerns the target T29, CT49 (human).
T29 sequence (peptide, C-terminal amide (-NH2)): QTAIGVGAA
The description is as above.

In another assay the target is T30, CT44 (human).
T30 sequence (peptide, C-terminal amide (-NH2)): QAAIGVGAP
The assay is described as above.

B1: 14D11 (antibody, V domains shown)
VH: EVQLQQSGPELVKPGTSVKIFCMTSGYTFTEFTMHWVKKSPGESLEWIGGIFPDNGGSTYNRKFKDKATLTVDRSSRTAYLELRSLTSEDSAVYYCARYYYNGRAYGIYAMDYWGQGTSVTVSS
VL: DVVLTQSPLSLFVSLGDQVSISCRSSQSLVHSNGNTYLHWYQLKTGQSPKLLIYTVSNRFSGVPDRFSGSGSGTDFTLKINRVEAEDLGVYFCSQSKLVPWTFGGGTKLEIK
In the case of B1, the competition rate (对照样品OD值-检测样品OD值)/对照样品OD值 with CT8 (human) was determined as 92%; with CT12 (human), 92%; with CT10 (human) it was 95%; with CT13 (human) it was 92%; with CT15 (human) it was 91%; with CT14 (human) it was 91%. Moreover, the competition rate (对照样品OD值-检测样品OD值)/对照样品OD值 is -14% with CT17 (human); 91% with CT5 (human); 95% with CT9 (human); 94% with CT6 (human); 32% in the assay with CT3 (human); 95% with CT7 (human). In addition, the competition rate (对照样品OD值-检测样品OD值)/对照样品OD值 with CT4 (human) came out at 99%; with CT18 (human) it was 30%; with CT16 (human) it was 11%; in the assay with CT1 (human), 1%; with CT2 (human) it was 99%; in the assay with CT11 (human), 68%. Also, the 发光值 at CT(WHO) 0.125pg/ml in [1] was determined as 1730. In assay [1], this molecule returned a 发光值 at CT(WHO) 0.25pg/ml of 2410. In [1], this molecule displayed a 发光值 at CT(WHO) 0.5pg/ml of 4030. Besides, the 发光值 at CT(WHO) 1pg/ml in assay [1] stood at 7460. The 发光值 at CT(WHO) 2pg/ml in [1] was determined as 13600.

B2: 10B11 (antibody, V domains shown)
VH: SDVQLQESGPGLVKPSQSLSLTCTVTGYSITSDYVWNWIRQFPGNKLEWMGYISYSGSTNYNPSLKSRISITRDTSKNQFFLQLNSVTTEDTATYYCAREDWPAWGQ
VL: DIVMTQSQKLMSTSVGDRVSITCKASQNVRSAVAWYQQKPGQSPKTLIYLTSNRHTGVPDRFTGSGSGTDFTLTINNVQSEDLADYFCLQHWNSPLTFGGGTKLEIK
B2: the competition rate (对照样品OD值-检测样品OD值)/对照样品OD值 with CT24 (human) was found to be 98%; with CT26 (human), 60%; with CT25 (human), 98%; in the assay with CT23 (human) it was 98%; in the assay with CT22 (human) it was 98%; with CT21 (human), 98%. Besides, the competition rate (对照样品OD值-检测样品OD值)/对照样品OD值 is 62% with CT48 (human); 92% with CT46 (human); 97% with CT43 (human); 97% with CT45 (human); 85% with CT47 (human); 56% with CT49 (human). In addition, the competition rate (对照样品OD值-检测样品OD值)/对照样品OD值 in the assay with CT44 (human) came to 98%.
